Several values for one entry are separate records, joined by “and”; a condition that tells them apart may be missing. Equal entries are not always repeated.

Consider 19 molecules from patent US20240400654A1.

Experiment [1] concerns the target HRgpA-6H (Porphyromonas gingivalis) (UniProt P28784). As to the kind of experiment: ELISA, FASEBA screening, coated HRgpA-6H; variant OD over parental WT Fab OD.
The target is the same in experiment [2]. As to the kind of experiment: ELISA, FASEBA screening, coated HRgpA-6H 0.0625 ug/ml. On the technique in general: ELISA stands for enzyme-linked immunosorbent assay.

Sequence of UniProt P28784 (P28784 228-860): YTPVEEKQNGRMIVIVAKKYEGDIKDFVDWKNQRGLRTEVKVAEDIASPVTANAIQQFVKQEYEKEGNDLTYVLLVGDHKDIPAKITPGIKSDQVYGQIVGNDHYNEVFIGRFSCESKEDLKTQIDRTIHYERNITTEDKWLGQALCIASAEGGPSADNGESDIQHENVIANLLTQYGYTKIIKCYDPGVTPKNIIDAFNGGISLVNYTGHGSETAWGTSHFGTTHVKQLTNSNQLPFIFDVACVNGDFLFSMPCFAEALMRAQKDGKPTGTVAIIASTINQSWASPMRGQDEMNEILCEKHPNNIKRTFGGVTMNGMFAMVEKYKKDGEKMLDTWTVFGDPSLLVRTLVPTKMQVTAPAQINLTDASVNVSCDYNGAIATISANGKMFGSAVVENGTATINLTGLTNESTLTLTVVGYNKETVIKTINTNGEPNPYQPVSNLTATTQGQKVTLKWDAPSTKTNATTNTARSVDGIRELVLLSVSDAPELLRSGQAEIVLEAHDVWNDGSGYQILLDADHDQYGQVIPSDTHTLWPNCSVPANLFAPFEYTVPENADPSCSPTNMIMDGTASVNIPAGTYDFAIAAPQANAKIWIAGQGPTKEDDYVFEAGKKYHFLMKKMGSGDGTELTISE

B1: KB001 parental mouse Fab FASEBA variant VH K64H (Fab, V domains shown)
VH: EVQLKQSGPGLVAPSQSLSITCTVSGFSLSIYSVHWVRQPPGKGLEWLGMIWGGGSSDYNSALHSRLSISKDNSKSQVFLKMNSLQTDDTAMYYCARNGNFYAMDYWGQGTSVTVSS
VL: QIVLTQSPAIMSASLGERVTMTCTASSSVSSSFLHWYQQKPGSSPQLWIYSTSNLASGVPARFSGSGSGTSYSLTISSMEAEDAATYYCHQYHHSPYIYTFGGGTKLEIK
For B1, the Ratio OD(Variant)/OD(WT) in experiment [1] was 0.953 and 0.975 and 0.883. The OD450 nm in experiment [2] was 0.788 and 0.806 and 0.73.

B2: KB001 parental mouse Fab FASEBA variant VH S65T (Fab, V domains shown)
VH: EVQLKQSGPGLVAPSQSLSITCTVSGFSLSIYSVHWVRQPPGKGLEWLGMIWGGGSSDYNSALKTRLSISKDNSKSQVFLKMNSLQTDDTAMYYCARNGNFYAMDYWGQGTSVTVSS
VL: QIVLTQSPAIMSASLGERVTMTCTASSSVSSSFLHWYQQKPGSSPQLWIYSTSNLASGVPARFSGSGSGTSYSLTISSMEAEDAATYYCHQYHHSPYIYTFGGGTKLEIK
Take B2: the Ratio OD(Variant)/OD(WT) in experiment [1] was determined as 0.918. In experiment [2], the OD450 nm was determined as 0.759.

B3: KB001 parental mouse Fab FASEBA variant VH K64D (Fab, V domains shown)
VH: EVQLKQSGPGLVAPSQSLSITCTVSGFSLSIYSVHWVRQPPGKGLEWLGMIWGGGSSDYNSALDSRLSISKDNSKSQVFLKMNSLQTDDTAMYYCARNGNFYAMDYWGQGTSVTVSS
VL: QIVLTQSPAIMSASLGERVTMTCTASSSVSSSFLHWYQQKPGSSPQLWIYSTSNLASGVPARFSGSGSGTSYSLTISSMEAEDAATYYCHQYHHSPYIYTFGGGTKLEIK
As for B3, the Ratio OD(Variant)/OD(WT) in experiment [1] stood at 0.944. This molecule also had an OD450 nm in experiment [2] of 0.781.

B4: KB001 parental mouse Fab FASEBA variant VH G99N (Fab, V domains shown)
VH: EVQLKQSGPGLVAPSQSLSITCTVSGFSLSIYSVHWVRQPPGKGLEWLGMIWGGGSSDYNSALKSRLSISKDNSKSQVFLKMNSLQTDDTAMYYCARNNNFYAMDYWGQGTSVTVSS
VL: QIVLTQSPAIMSASLGERVTMTCTASSSVSSSFLHWYQQKPGSSPQLWIYSTSNLASGVPARFSGSGSGTSYSLTISSMEAEDAATYYCHQYHHSPYIYTFGGGTKLEIK
As to B4, the Ratio OD(Variant)/OD(WT) in experiment [1] is 0.802 and 0.876. Besides, the OD450 nm in experiment [2] is 0.639 and 0.698.

B5: KB001 parental mouse Fab FASEBA variant VH S65R (Fab, V domains shown)
VH: EVQLKQSGPGLVAPSQSLSITCTVSGFSLSIYSVHWVRQPPGKGLEWLGMIWGGGSSDYNSALKRRLSISKDNSKSQVFLKMNSLQTDDTAMYYCARNGNFYAMDYWGQGTSVTVSS
VL: QIVLTQSPAIMSASLGERVTMTCTASSSVSSSFLHWYQQKPGSSPQLWIYSTSNLASGVPARFSGSGSGTSYSLTISSMEAEDAATYYCHQYHHSPYIYTFGGGTKLEIK
On to B5, for which the Ratio OD(Variant)/OD(WT) in experiment [1] came out at 0.96. The OD450 nm in experiment [2] was 0.794.

B6: KB001 parental mouse Fab FASEBA variant VH K64Q (Fab, V domains shown)
VH: EVQLKQSGPGLVAPSQSLSITCTVSGFSLSIYSVHWVRQPPGKGLEWLGMIWGGGSSDYNSALQSRLSISKDNSKSQVFLKMNSLQTDDTAMYYCARNGNFYAMDYWGQGTSVTVSS
VL: QIVLTQSPAIMSASLGERVTMTCTASSSVSSSFLHWYQQKPGSSPQLWIYSTSNLASGVPARFSGSGSGTSYSLTISSMEAEDAATYYCHQYHHSPYIYTFGGGTKLEIK
As for B6, the Ratio OD(Variant)/OD(WT) in experiment [1] is 0.954. In experiment [2], this molecule gave an OD450 nm of 0.789.

B7: KB001 parental mouse Fab FASEBA variant VH S65Y (Fab, V domains shown)
VH: EVQLKQSGPGLVAPSQSLSITCTVSGFSLSIYSVHWVRQPPGKGLEWLGMIWGGGSSDYNSALKYRLSISKDNSKSQVFLKMNSLQTDDTAMYYCARNGNFYAMDYWGQGTSVTVSS
VL: QIVLTQSPAIMSASLGERVTMTCTASSSVSSSFLHWYQQKPGSSPQLWIYSTSNLASGVPARFSGSGSGTSYSLTISSMEAEDAATYYCHQYHHSPYIYTFGGGTKLEIK
For the molecule B7, the Ratio OD(Variant)/OD(WT) in experiment [1] worked out at 0.875. Further, the OD450 nm in experiment [2] is 0.724.

B8: KB001 parental mouse Fab FASEBA variant VH G99S (Fab, V domains shown)
VH: EVQLKQSGPGLVAPSQSLSITCTVSGFSLSIYSVHWVRQPPGKGLEWLGMIWGGGSSDYNSALKSRLSISKDNSKSQVFLKMNSLQTDDTAMYYCARNSNFYAMDYWGQGTSVTVSS
VL: QIVLTQSPAIMSASLGERVTMTCTASSSVSSSFLHWYQQKPGSSPQLWIYSTSNLASGVPARFSGSGSGTSYSLTISSMEAEDAATYYCHQYHHSPYIYTFGGGTKLEIK
As for B8, the Ratio OD(Variant)/OD(WT) in experiment [1] was 0.965 and 0.927 and 0.966. Further, in experiment [2], the OD450 nm is 0.769 and 0.739 and 0.77.

B9: KB001 parental mouse Fab FASEBA variant VH S65P (Fab, V domains shown)
VH: EVQLKQSGPGLVAPSQSLSITCTVSGFSLSIYSVHWVRQPPGKGLEWLGMIWGGGSSDYNSALKPRLSISKDNSKSQVFLKMNSLQTDDTAMYYCARNGNFYAMDYWGQGTSVTVSS
VL: QIVLTQSPAIMSASLGERVTMTCTASSSVSSSFLHWYQQKPGSSPQLWIYSTSNLASGVPARFSGSGSGTSYSLTISSMEAEDAATYYCHQYHHSPYIYTFGGGTKLEIK
In the case of B9, in experiment [1], the Ratio OD(Variant)/OD(WT) came out at 0.984. For the same molecule, in experiment [2], the OD450 nm came to 0.814.

B10: KB001 parental mouse Fab FASEBA variant VH K64M (Fab, V domains shown)
VH: EVQLKQSGPGLVAPSQSLSITCTVSGFSLSIYSVHWVRQPPGKGLEWLGMIWGGGSSDYNSALMSRLSISKDNSKSQVFLKMNSLQTDDTAMYYCARNGNFYAMDYWGQGTSVTVSS
VL: QIVLTQSPAIMSASLGERVTMTCTASSSVSSSFLHWYQQKPGSSPQLWIYSTSNLASGVPARFSGSGSGTSYSLTISSMEAEDAATYYCHQYHHSPYIYTFGGGTKLEIK
Turning to B10, the Ratio OD(Variant)/OD(WT) in experiment [1] is 0.948. The molecule further had an OD450 nm in experiment [2] of 0.784.

B11: KB001 parental mouse Fab FASEBA variant VH G99A (Fab, V domains shown)
VH: EVQLKQSGPGLVAPSQSLSITCTVSGFSLSIYSVHWVRQPPGKGLEWLGMIWGGGSSDYNSALKSRLSISKDNSKSQVFLKMNSLQTDDTAMYYCARNANFYAMDYWGQGTSVTVSS
VL: QIVLTQSPAIMSASLGERVTMTCTASSSVSSSFLHWYQQKPGSSPQLWIYSTSNLASGVPARFSGSGSGTSYSLTISSMEAEDAATYYCHQYHHSPYIYTFGGGTKLEIK
For B11, the Ratio OD(Variant)/OD(WT) in experiment [1] came out at 0.928. In addition, the OD450 nm in experiment [2] was 0.74.

B12: KB001 parental mouse Fab FASEBA variant VH S65L (Fab, V domains shown)
VH: EVQLKQSGPGLVAPSQSLSITCTVSGFSLSIYSVHWVRQPPGKGLEWLGMIWGGGSSDYNSALKLRLSISKDNSKSQVFLKMNSLQTDDTAMYYCARNGNFYAMDYWGQGTSVTVSS
VL: QIVLTQSPAIMSASLGERVTMTCTASSSVSSSFLHWYQQKPGSSPQLWIYSTSNLASGVPARFSGSGSGTSYSLTISSMEAEDAATYYCHQYHHSPYIYTFGGGTKLEIK
In the case of B12, the Ratio OD(Variant)/OD(WT) in experiment [1] was determined as 0.88. The molecule also registered an OD450 nm in experiment [2] of 0.728.

B13: KB001 parental mouse Fab FASEBA variant VH S65F (Fab, V domains shown)
VH: EVQLKQSGPGLVAPSQSLSITCTVSGFSLSIYSVHWVRQPPGKGLEWLGMIWGGGSSDYNSALKFRLSISKDNSKSQVFLKMNSLQTDDTAMYYCARNGNFYAMDYWGQGTSVTVSS
VL: QIVLTQSPAIMSASLGERVTMTCTASSSVSSSFLHWYQQKPGSSPQLWIYSTSNLASGVPARFSGSGSGTSYSLTISSMEAEDAATYYCHQYHHSPYIYTFGGGTKLEIK
As for B13, the Ratio OD(Variant)/OD(WT) in experiment [1] is 0.895. In experiment [2], this molecule registered an OD450 nm of 0.74.

B14: KB001 parental mouse Fab FASEBA variant VH K64G (Fab, V domains shown)
VH: EVQLKQSGPGLVAPSQSLSITCTVSGFSLSIYSVHWVRQPPGKGLEWLGMIWGGGSSDYNSALGSRLSISKDNSKSQVFLKMNSLQTDDTAMYYCARNGNFYAMDYWGQGTSVTVSS
VL: QIVLTQSPAIMSASLGERVTMTCTASSSVSSSFLHWYQQKPGSSPQLWIYSTSNLASGVPARFSGSGSGTSYSLTISSMEAEDAATYYCHQYHHSPYIYTFGGGTKLEIK
B14: the Ratio OD(Variant)/OD(WT) in experiment [1] is 0.981. In experiment [2], this molecule gave an OD450 nm of 0.811.

B15: KB001 parental mouse Fab FASEBA variant VH G99F (Fab, V domains shown)
VH: EVQLKQSGPGLVAPSQSLSITCTVSGFSLSIYSVHWVRQPPGKGLEWLGMIWGGGSSDYNSALKSRLSISKDNSKSQVFLKMNSLQTDDTAMYYCARNFNFYAMDYWGQGTSVTVSS
VL: QIVLTQSPAIMSASLGERVTMTCTASSSVSSSFLHWYQQKPGSSPQLWIYSTSNLASGVPARFSGSGSGTSYSLTISSMEAEDAATYYCHQYHHSPYIYTFGGGTKLEIK
Turning to B15, the Ratio OD(Variant)/OD(WT) in experiment [1] stood at 0.967. Further, the OD450 nm in experiment [2] amounted to 0.771.

B16: KB001 parental mouse Fab FASEBA variant VH S65G (Fab, V domains shown)
VH: EVQLKQSGPGLVAPSQSLSITCTVSGFSLSIYSVHWVRQPPGKGLEWLGMIWGGGSSDYNSALKGRLSISKDNSKSQVFLKMNSLQTDDTAMYYCARNGNFYAMDYWGQGTSVTVSS
VL: QIVLTQSPAIMSASLGERVTMTCTASSSVSSSFLHWYQQKPGSSPQLWIYSTSNLASGVPARFSGSGSGTSYSLTISSMEAEDAATYYCHQYHHSPYIYTFGGGTKLEIK
For B16, the Ratio OD(Variant)/OD(WT) in experiment [1] was 0.998. The molecule further displayed an OD450 nm in experiment [2] of 0.825.

B17: KB001 parental mouse Fab FASEBA variant VH K64E (Fab, V domains shown)
VH: EVQLKQSGPGLVAPSQSLSITCTVSGFSLSIYSVHWVRQPPGKGLEWLGMIWGGGSSDYNSALESRLSISKDNSKSQVFLKMNSLQTDDTAMYYCARNGNFYAMDYWGQGTSVTVSS
VL: QIVLTQSPAIMSASLGERVTMTCTASSSVSSSFLHWYQQKPGSSPQLWIYSTSNLASGVPARFSGSGSGTSYSLTISSMEAEDAATYYCHQYHHSPYIYTFGGGTKLEIK
Take B17: the Ratio OD(Variant)/OD(WT) in experiment [1] was 0.954. In addition, the OD450 nm in experiment [2] amounted to 0.789.

B18: KB001 parental mouse Fab FASEBA variant VH K64L (Fab, V domains shown)
VH: EVQLKQSGPGLVAPSQSLSITCTVSGFSLSIYSVHWVRQPPGKGLEWLGMIWGGGSSDYNSALLSRLSISKDNSKSQVFLKMNSLQTDDTAMYYCARNGNFYAMDYWGQGTSVTVSS
VL: QIVLTQSPAIMSASLGERVTMTCTASSSVSSSFLHWYQQKPGSSPQLWIYSTSNLASGVPARFSGSGSGTSYSLTISSMEAEDAATYYCHQYHHSPYIYTFGGGTKLEIK
Take B18: the Ratio OD(Variant)/OD(WT) in experiment [1] is 0.803. In experiment [2], this molecule came in with an OD450 nm of 0.664.

B19: KB001 parental mouse Fab FASEBA variant VH S65H (Fab, V domains shown)
VH: EVQLKQSGPGLVAPSQSLSITCTVSGFSLSIYSVHWVRQPPGKGLEWLGMIWGGGSSDYNSALKHRLSISKDNSKSQVFLKMNSLQTDDTAMYYCARNGNFYAMDYWGQGTSVTVSS
VL: QIVLTQSPAIMSASLGERVTMTCTASSSVSSSFLHWYQQKPGSSPQLWIYSTSNLASGVPARFSGSGSGTSYSLTISSMEAEDAATYYCHQYHHSPYIYTFGGGTKLEIK
B19: the Ratio OD(Variant)/OD(WT) in experiment [1] is 0.995 and 0.927. In addition, in experiment [2], the OD450 nm was 0.823 and 0.767.
